Measurements published in PMC10760395 (2023).
Several values for one entry are separate records, joined by “and”; a condition that tells them apart may be missing. Identical values can stand only once.

T1: endothelin B receptor (ETB) (UniProt P24530 27-442)
T1 chain: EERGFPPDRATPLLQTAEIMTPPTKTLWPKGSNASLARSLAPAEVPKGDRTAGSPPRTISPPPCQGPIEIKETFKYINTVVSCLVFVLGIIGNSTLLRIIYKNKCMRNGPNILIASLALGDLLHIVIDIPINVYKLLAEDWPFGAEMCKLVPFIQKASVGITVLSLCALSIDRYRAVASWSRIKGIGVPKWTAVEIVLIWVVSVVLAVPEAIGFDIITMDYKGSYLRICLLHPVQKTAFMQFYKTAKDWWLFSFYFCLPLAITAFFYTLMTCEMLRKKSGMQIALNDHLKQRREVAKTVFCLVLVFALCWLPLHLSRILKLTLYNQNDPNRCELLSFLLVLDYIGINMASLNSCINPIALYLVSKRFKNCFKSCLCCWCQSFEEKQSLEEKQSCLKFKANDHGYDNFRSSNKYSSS


Biological target: T1, endothelin B receptor (ETB)
Assay: FACS

Kd	Binder
6 nM	xiRB49-P125T (antibody, V domains shown) VH: QVQLQQPGAALVKPGASVKLSCKASGYTFISYWMLWVKQRPGRGLEWIGRIDPDSGGTKYNEKFKSKATLTVDKSSSTAYMQLSSLTSEDSAVYYCAREGDYAWFAYWGQGTLVTVSA VL: DVLMTQTPLSLPVSLGDQASISCRSSQSIVHSNGNTYLEWYLQKPGQSPKLLIYKVSNRFSGVPDRFSGSGSGTDFTLKISRVEAEDLGVYYCFQGSHVPWTFGGGTKLEIK
4.19 nM and 3.5 nM	Rendomab B49 (RB49), murine mAb purified from hybridoma (antibody, V domains shown) VH: QVQLQQPGAALVKPGASVKLSCKASGYTFISYWMLWVKQRPGRGLEWIGRIDPDSGGTKYNEKFKSKATLTVDKSSSTAYMQLSSLTSEDSAVYYCAREGDYAWFAYWGQGTLVPVSA VL: DVLMTQTPLSLPVSLGDQASISCRSSQSIVHSNGNTYLEWYLQKPGQSPKLLIYKVSNRFSGVPDRFSGSGSGTDFTLKISRVEAEDLGVYYCFQGSHVPWTFGGGTKLEIK
3.04 nM	recombinant RB49 (reRB49) (antibody, V domains shown) VH: QVQLQQPGAALVKPGASVKLSCKASGYTFISYWMLWVKQRPGRGLEWIGRIDPDSGGTKYNEKFKSKATLTVDKSSSTAYMQLSSLTSEDSAVYYCAREGDYAWFAYWGQGTLVPVSA VL: DVLMTQTPLSLPVSLGDQASISCRSSQSIVHSNGNTYLEWYLQKPGQSPKLLIYKVSNRFSGVPDRFSGSGSGTDFTLKISRVEAEDLGVYYCFQGSHVPWTFGGGTKLEIK
